Among the data in article PMC4136804 are fold increase in binding compared to GST alone and fold increase in binding over the single-finger fusion values, retold here.

Assay [1] concerns the target GST-tagged SUMO-2 (UniProt P61956). The assay can be described thus: pull-down; as the plate assay, equal cpm of radiolabeled protein per well, eluted protein counted by liquid scintillation; mean of three experiments, compared with GST alone.
For assay [2], the target named is GST-tagged SUMO-2(x3). Described as above.
GST-tagged SUMO-2(x3), sequence (main, as listed by the source): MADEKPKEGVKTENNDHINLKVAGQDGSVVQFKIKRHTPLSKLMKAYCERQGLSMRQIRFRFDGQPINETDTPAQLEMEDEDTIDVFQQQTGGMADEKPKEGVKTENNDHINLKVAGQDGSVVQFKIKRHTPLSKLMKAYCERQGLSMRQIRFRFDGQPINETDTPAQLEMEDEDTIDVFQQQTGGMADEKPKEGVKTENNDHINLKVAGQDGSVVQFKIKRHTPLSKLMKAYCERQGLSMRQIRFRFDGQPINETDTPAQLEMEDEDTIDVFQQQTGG

pyruvate kinase fused with a single MYM-type zinc finger of ZNF261 (domain or fragment), sequence (Q14202 327-738): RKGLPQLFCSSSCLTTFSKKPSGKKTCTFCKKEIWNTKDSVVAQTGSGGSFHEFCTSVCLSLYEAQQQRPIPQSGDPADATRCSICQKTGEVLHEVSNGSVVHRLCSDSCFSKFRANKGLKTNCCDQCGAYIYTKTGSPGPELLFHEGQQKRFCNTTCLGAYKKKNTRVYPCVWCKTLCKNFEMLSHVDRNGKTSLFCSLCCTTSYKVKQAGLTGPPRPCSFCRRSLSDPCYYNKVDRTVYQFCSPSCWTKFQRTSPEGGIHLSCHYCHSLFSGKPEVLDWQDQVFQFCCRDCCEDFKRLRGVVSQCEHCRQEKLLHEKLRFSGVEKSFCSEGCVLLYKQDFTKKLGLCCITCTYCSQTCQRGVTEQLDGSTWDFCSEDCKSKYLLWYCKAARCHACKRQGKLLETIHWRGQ
pyruvate kinase fused with the first two MYM-type zinc fingers of ZNF261 (domain or fragment), sequence (Q14202 327-738): as above

“pyruvate kinase fused with a single MYM-type zinc finger of ZNF261 (domain or fragment)”: the values for the fold increase in binding compared to GST alone in assay [1] and in assay [2] were 1.5 fold and 3 fold, respectively.

Take “pyruvate kinase fused with the first two MYM-type zinc fingers of ZNF261 (domain or fragment)”: the fold increase in binding over the single-finger fusion in assay [1] and in assay [2] was over 2 fold in each case.
